Measured values taken from paper PMC6624373.
“And” between values parts separate entries of the source, which are not always exact repeats. Equal entries are not always repeated.

How the values were obtained:
Conditions in all cases: remark: other sources report otherwise
[1] = biological target: T1, lamin A (human, mature form, without tags, wild type) (human), P02545; test: AUC; sedimentation velocity, 0.3 mg/mL lamin A in Tris or NaPi buffer, 45,000 rpm, 20 °C, interference optics, c(s) model
T1 chain: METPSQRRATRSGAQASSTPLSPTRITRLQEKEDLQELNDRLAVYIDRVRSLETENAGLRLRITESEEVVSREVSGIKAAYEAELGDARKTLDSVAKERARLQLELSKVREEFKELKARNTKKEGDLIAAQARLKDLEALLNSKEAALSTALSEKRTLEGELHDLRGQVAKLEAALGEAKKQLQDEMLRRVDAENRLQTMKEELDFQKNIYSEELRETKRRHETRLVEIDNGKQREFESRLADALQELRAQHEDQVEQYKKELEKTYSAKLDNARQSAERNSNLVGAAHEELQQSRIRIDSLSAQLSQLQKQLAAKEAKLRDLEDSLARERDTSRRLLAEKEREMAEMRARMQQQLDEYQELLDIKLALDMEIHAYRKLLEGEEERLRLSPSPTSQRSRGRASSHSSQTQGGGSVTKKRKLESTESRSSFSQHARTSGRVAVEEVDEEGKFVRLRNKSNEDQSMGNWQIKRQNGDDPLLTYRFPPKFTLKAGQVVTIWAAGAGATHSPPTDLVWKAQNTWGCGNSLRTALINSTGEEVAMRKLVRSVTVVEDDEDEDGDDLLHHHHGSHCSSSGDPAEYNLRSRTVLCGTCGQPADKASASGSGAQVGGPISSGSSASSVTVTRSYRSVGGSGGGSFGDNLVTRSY

[2] = biological target: T1, lamin A (human, mature form, without …); test: as above
[3] = biological target: T2, 6xHis-tagged lamin A (human, mature form) (human), P02545; test: pull-down; Ni-NTA pull-down of a 1:1 mix of un-tagged and 6xHis-tagged lamin A monomers after gel-extraction and refolding
T2 chain: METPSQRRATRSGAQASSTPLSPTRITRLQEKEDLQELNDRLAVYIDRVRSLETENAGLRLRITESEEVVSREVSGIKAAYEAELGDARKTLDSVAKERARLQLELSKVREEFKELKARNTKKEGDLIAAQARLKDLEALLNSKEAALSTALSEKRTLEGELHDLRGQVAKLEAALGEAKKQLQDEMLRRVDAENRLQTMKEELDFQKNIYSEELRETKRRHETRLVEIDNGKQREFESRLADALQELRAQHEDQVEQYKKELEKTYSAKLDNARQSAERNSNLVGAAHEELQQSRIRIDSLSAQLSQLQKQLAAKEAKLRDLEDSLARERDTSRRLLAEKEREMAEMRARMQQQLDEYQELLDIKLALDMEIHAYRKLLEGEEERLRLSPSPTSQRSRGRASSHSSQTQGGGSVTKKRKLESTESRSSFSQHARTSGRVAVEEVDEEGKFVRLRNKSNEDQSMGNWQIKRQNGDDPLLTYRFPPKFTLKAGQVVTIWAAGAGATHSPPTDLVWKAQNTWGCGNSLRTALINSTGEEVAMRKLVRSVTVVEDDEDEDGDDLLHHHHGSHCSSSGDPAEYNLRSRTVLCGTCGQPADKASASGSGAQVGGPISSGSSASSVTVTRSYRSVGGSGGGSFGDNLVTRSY

[4] = biological target: T1, lamin A (human, mature form, without …); test: cross-linking; 0.4 mg/mL lamin A in NaPi buffer, EDC:S-NHS (1:4:8.8 by weight lamin A:EDC:S-NHS), 30 min, room temperature; product bands resolved by SDS-PAGE, gel-extracted and seen by rotary metal shadowing EM
[5] = biological target: T1, lamin A (human, mature form, without …); test: rotary metal shadowing EM; un-cross-linked lamin A at 0.1 mg/mL in Tris buffer (25 mM Tris, 250 mM NaCl, pH 8.0) or NaPi buffer (100 mM NaPi, 250 mM NaCl, pH 8.0), 30% glycerol, sprayed on mica; dimers and head-to-tail tetramers

B1: lamin A (human, mature form, without tags, wild type), P02545 1-646 (natural protein)
chain: METPSQRRATRSGAQASSTPLSPTRITRLQEKEDLQELNDRLAVYIDRVRSLETENAGLRLRITESEEVVSREVSGIKAAYEAELGDARKTLDSVAKERARLQLELSKVREEFKELKARNTKKEGDLIAAQARLKDLEALLNSKEAALSTALSEKRTLEGELHDLRGQVAKLEAALGEAKKQLQDEMLRRVDAENRLQTMKEELDFQKNIYSEELRETKRRHETRLVEIDNGKQREFESRLADALQELRAQHEDQVEQYKKELEKTYSAKLDNARQSAERNSNLVGAAHEELQQSRIRIDSLSAQLSQLQKQLAAKEAKLRDLEDSLARERDTSRRLLAEKEREMAEMRARMQQQLDEYQELLDIKLALDMEIHAYRKLLEGEEERLRLSPSPTSQRSRGRASSHSSQTQGGGSVTKKRKLESTESRSSFSQHARTSGRVAVEEVDEEGKFVRLRNKSNEDQSMGNWQIKRQNGDDPLLTYRFPPKFTLKAGQVVTIWAAGAGATHSPPTDLVWKAQNTWGCGNSLRTALINSTGEEVAMRKLVRSVTVVEDDEDEDGDDLLHHHHGSHCSSSGDPAEYNLRSRTVLCGTCGQPADKASASGSGAQVGGPISSGSSASSVTVTRSYRSVGGSGGGSFGDNLVTRSY
**Q.** B1 was tested. Which stoichiometry N [1] did it give?
**A.** 4

**Q.** What about the stoichiometry N [2] of the same binder?
**A.** 2

**Q.** What about the percent of un-tagged lamin A retained on the beads [3] of the same binder?
**A.** 50%

**Q.** And the stoichiometry N [4]?
**A.** 2 and 4

**Q.** And the dimers seen per head-to-tail tetramer (EM) (dimers per tetramer) [5]?
**A.** 20 to 25

**Q.** What about the stoichiometry N [5] of the same binder?
**A.** 2 and 4
